The record followed here is patent US20120164142A1.

Where a chain is given by its changes, count along the chain named. Ends that are not written are not given here.

Common to all, as to test: cell-based or functional assay
The target of assay [1] is human natriuretic peptide receptor B (NPR-B) (human) (UniProt P20594).
Assay [2] has as its target purified neutral endopeptidase (NEP) (UniProt P08473).
In assay [3] the target is human natriuretic peptide receptor A (NPR-A) (human) (UniProt P16066).
human natriuretic peptide receptor A (NPR-A) (human), sequence (P16066 33-1061): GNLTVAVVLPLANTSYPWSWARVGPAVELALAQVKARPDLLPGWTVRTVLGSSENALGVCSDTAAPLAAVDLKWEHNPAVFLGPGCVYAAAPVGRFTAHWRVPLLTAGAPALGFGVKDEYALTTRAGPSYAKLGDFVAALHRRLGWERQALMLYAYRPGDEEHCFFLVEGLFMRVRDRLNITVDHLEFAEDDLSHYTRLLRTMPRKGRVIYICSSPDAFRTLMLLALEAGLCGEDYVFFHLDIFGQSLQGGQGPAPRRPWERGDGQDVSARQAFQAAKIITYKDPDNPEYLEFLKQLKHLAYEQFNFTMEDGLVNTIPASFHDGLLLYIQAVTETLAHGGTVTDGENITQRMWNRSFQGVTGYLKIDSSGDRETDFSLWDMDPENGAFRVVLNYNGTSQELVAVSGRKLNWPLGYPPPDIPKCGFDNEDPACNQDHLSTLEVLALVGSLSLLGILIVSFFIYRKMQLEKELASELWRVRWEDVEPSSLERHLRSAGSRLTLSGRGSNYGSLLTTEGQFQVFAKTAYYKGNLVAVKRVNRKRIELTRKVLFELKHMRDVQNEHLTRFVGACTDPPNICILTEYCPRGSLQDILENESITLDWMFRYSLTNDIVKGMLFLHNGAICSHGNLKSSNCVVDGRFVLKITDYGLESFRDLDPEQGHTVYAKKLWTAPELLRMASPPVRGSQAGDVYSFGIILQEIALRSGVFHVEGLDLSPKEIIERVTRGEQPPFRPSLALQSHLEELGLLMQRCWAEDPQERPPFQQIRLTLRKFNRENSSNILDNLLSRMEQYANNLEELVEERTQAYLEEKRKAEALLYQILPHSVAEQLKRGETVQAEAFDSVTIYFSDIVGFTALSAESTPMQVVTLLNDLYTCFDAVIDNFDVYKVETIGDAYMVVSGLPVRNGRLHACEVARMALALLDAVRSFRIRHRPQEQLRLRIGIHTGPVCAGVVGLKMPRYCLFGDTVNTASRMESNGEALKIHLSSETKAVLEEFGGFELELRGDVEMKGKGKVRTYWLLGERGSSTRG

human natriuretic peptide receptor B (NPR-B) (human), sequence (P20594 23-1047): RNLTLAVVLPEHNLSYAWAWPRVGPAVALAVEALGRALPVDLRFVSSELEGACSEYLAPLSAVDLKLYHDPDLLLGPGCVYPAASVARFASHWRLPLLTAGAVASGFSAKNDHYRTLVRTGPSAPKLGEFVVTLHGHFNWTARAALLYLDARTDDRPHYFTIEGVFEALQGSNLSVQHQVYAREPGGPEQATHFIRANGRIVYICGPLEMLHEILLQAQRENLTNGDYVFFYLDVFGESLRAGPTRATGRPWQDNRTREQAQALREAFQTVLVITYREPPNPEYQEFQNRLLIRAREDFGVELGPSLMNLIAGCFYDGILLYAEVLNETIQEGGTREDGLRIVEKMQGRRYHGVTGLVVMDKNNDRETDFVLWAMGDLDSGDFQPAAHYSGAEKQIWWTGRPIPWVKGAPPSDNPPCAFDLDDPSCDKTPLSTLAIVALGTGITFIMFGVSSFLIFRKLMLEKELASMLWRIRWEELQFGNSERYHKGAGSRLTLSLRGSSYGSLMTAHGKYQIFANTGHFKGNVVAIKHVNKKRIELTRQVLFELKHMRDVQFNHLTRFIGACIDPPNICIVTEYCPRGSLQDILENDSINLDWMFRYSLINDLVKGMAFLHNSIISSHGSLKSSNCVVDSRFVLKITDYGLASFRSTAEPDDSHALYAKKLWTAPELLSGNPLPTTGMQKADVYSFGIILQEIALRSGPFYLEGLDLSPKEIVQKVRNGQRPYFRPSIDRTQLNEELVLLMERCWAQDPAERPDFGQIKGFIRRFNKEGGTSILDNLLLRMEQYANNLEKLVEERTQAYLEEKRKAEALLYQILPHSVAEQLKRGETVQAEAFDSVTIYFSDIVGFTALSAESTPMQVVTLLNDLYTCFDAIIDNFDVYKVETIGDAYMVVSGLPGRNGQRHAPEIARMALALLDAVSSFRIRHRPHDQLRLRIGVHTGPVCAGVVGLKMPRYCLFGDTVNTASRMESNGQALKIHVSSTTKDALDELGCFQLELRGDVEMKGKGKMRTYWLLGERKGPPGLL
purified neutral endopeptidase (NEP), sequence (P08473 52-750 limits assumed): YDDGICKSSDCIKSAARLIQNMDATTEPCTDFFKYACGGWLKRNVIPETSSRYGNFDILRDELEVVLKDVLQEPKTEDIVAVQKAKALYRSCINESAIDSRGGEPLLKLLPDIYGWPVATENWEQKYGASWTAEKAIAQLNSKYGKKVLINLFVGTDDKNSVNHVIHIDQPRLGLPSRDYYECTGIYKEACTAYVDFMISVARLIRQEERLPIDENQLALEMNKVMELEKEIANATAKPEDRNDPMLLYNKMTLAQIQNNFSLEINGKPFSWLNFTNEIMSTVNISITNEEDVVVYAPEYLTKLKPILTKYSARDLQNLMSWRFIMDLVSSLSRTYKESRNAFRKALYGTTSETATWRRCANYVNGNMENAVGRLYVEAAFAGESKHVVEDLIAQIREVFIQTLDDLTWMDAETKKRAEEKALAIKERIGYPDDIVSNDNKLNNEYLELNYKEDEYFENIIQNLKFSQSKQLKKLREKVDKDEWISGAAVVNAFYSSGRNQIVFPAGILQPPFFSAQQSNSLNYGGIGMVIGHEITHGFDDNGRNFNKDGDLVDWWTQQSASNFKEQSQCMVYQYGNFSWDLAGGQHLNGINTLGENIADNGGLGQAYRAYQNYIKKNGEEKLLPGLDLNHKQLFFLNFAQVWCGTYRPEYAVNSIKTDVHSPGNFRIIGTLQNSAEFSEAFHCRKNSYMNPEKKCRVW

B1: KB1(E6) (peptide)
peptide: EEEEEEHKLRGQEHPNARKYKGANKKGLSKGCFGLKLDRIGSMSGLGC
In the case of B1, in assay [1], the % Efficacy was 109%; the EC50 (nM), NPR-B whole cell cGMP assay stood at 84.5 nM; the EC50 Ratio versus CNP22 came out at 5.75; the Rescue Ratio Average is 5.6. Also, the % of control after 240 min (intact peptide by RP-HPLC after incubation with NEP) in assay [2] stood at 107%.

B2: KA1(E6) (peptide)
peptide: B1 peptide with K8G, L9P, R10Q
On to B2, for which, in assay [1], the % Efficacy came out at 108%; the EC50 (nM), NPR-B whole cell cGMP assay came to 144 nM; the EC50 Ratio versus CNP22 was found to be 9.79; the Rescue Ratio Average turned out to be 8.2. For the same molecule, in assay [2], the % of control after 240 min (intact peptide by RP-HPLC after incubation with NEP) is 108%.

B3: CDNP-S3A4A5 (peptide)
peptide: GLSKGCFGLKLDRIGSMSGLGCPSSAAPRPNAPSTSA
modifications: ends and bridges not checked; cysteine pairing not given here
On to B3, for which, in assay [1], the % loss in efficacy versus CDNP (NPR-B selective efficacy gain) is 69%, the Approximate fold gain in selectivity versus CDNP (NPR-B over NPR-A) was found to be 14.9 fold and the Approximate fold selectivity NPR-B versus NPR-A was found to be 43.5 fold.

B4: CDNP-A5 (peptide)
peptide: B3 peptide with S25L, A26R
modifications: ends and bridges not checked; cysteine pairing not given here
Consider B4, for which, in assay [3], the % efficacy versus CDNP on NPR-A, membrane cGMP assay came to 114% and the EC50 ratio versus CDNP on NPR-A, membrane cGMP assay came out at 1.33. For the same molecule, in assay [1], the % efficacy versus CDNP on NPR-B, membrane cGMP assay is 87%; the % loss in efficacy versus CDNP (NPR-B selective efficacy gain) was -27%; the Approximate fold gain in selectivity versus CDNP (NPR-B over NPR-A) amounted to 5.54 fold; the Approximate fold selectivity NPR-B versus NPR-A is 16.2 fold. Also, the EC50 ratio versus CDNP on NPR-B, membrane cGMP assay in assay [1] turned out to be 0.24.

B5: CDNP-S3A5 (peptide)
peptide: B3 peptide with A26R
modifications: ends and bridges not checked; cysteine pairing not given here
As for B5, in assay [3], the % efficacy versus CDNP on NPR-A, membrane cGMP assay came out at 36% and the EC50 ratio versus CDNP on NPR-A, membrane cGMP assay turned out to be 1.33. In assay [1], the % efficacy versus CDNP on NPR-B, membrane cGMP assay came to 118%; the % loss in efficacy versus CDNP (NPR-B selective efficacy gain) came out at 82%; the Approximate fold gain in selectivity versus CDNP (NPR-B over NPR-A) worked out at 1.23 fold; the Approximate fold selectivity NPR-B versus NPR-A was found to be 3.59 fold. In addition, in assay [1], the EC50 ratio versus CDNP on NPR-B, membrane cGMP assay was found to be 1.08.

B6: CDNP-A4A5 (peptide)
peptide: B3 peptide with S25L
modifications: ends and bridges not checked; cysteine pairing not given here
As to B6, in assay [3], the % efficacy versus CDNP on NPR-A, membrane cGMP assay came out at 49% and the EC50 ratio versus CDNP on NPR-A, membrane cGMP assay was 0.48. Moreover, in assay [1], the % efficacy versus CDNP on NPR-B, membrane cGMP assay stood at 85%; the % loss in efficacy versus CDNP (NPR-B selective efficacy gain) worked out at 36%; the Approximate fold gain in selectivity versus CDNP (NPR-B over NPR-A) came out at 0.98 fold; the Approximate fold selectivity NPR-B versus NPR-A came to 2.86 fold. Further, the EC50 ratio versus CDNP on NPR-B, membrane cGMP assay in assay [1] was 0.49.

B7: CDNP-A4 (peptide)
peptide: B3 peptide with S25L, A27D
modifications: ends and bridges not checked; cysteine pairing not given here
On to B7, for which, in assay [3], the % efficacy versus CDNP on NPR-A, membrane cGMP assay worked out at 90% and the EC50 ratio versus CDNP on NPR-A, membrane cGMP assay worked out at 41.1. Further, in assay [1], the % efficacy versus CDNP on NPR-B, membrane cGMP assay is 92%; the % loss in efficacy versus CDNP (NPR-B selective efficacy gain) was determined as 2%; the Approximate fold gain in selectivity versus CDNP (NPR-B over NPR-A) came out at 17.8 fold; the Approximate fold selectivity NPR-B versus NPR-A was found to be 52 fold. Moreover, the EC50 ratio versus CDNP on NPR-B, membrane cGMP assay in assay [1] is 2.31.

B8: CDNP-S3A4 (peptide)
peptide: B3 peptide with A27D
modifications: ends and bridges not checked; cysteine pairing not given here
In the case of B8, in assay [1], the % loss in efficacy versus CDNP (NPR-B selective efficacy gain) was determined as 27%, the Approximate fold gain in selectivity versus CDNP (NPR-B over NPR-A) was 28.5 fold and the Approximate fold selectivity NPR-B versus NPR-A was found to be 83.2 fold.

B9: C4(E6) [BC4] (peptide)
peptide: EEEEEESGGGGSGGGKGANKKGLSKGCFGLKLDRIGSMSGLGC
For the molecule B9, in assay [1], the % Efficacy amounted to 136%; the EC50 (nM), NPR-B whole cell cGMP assay stood at 302 nM; the EC50 Ratio versus CNP22 is 20.5; the Rescue Ratio Average turned out to be 18. In assay [2], this molecule gave a % of control after 240 min (intact peptide by RP-HPLC after incubation with NEP) of 94%.

B10: C10(E6) [BC10] (peptide)
peptide: B9 peptide with K16Q, K20Q
Turning to B10, in assay [1], the % Efficacy is 156%; the EC50 (nM), NPR-B whole cell cGMP assay worked out at 2470 nM; the EC50 Ratio versus CNP22 worked out at 168; the Rescue Ratio Average was 90. In assay [2], this molecule gave a % of control after 240 min (intact peptide by RP-HPLC after incubation with NEP) of 102%.

B11: C9(E6) [BC9] (peptide)
peptide: B9 peptide with K20Q, K21Q
On to B11, for which, in assay [1], the % Efficacy stood at 95%; the EC50 (nM), NPR-B whole cell cGMP assay is 1170 nM; the EC50 Ratio versus CNP22 amounted to 79.3; the Rescue Ratio Average was determined as 87. The % of control after 240 min (intact peptide by RP-HPLC after incubation with NEP) in assay [2] is 98%.

B12: C7(E6) [BC7] (peptide)
peptide: B9 peptide with K20Q
Regarding B12, in assay [1], the % Efficacy worked out at 95%; the EC50 (nM), NPR-B whole cell cGMP assay was 1010 nM; the EC50 Ratio versus CNP22 was determined as 68.6; the Rescue Ratio Average came to 80. This molecule displayed a % of control after 240 min (intact peptide by RP-HPLC after incubation with NEP) in assay [2] of 98%.

B13: C5(E6) [BC5] (peptide)
peptide: B9 peptide with K16Q, K20Q, K21Q
Regarding B13, in assay [1], the % Efficacy worked out at 96%; the EC50 (nM), NPR-B whole cell cGMP assay was determined as 2360 nM; the EC50 Ratio versus CNP22 is 161; the Rescue Ratio Average is 138. In assay [2], the % of control after 240 min (intact peptide by RP-HPLC after incubation with NEP) stood at 100%.

B14: C6(E6) [BC6] (peptide)
peptide: B9 peptide with K21Q
On to B14, for which, in assay [1], the % Efficacy was determined as 88%; the EC50 (nM), NPR-B whole cell cGMP assay was 672 nM; the EC50 Ratio versus CNP22 worked out at 45.7; the Rescue Ratio Average is 63. In assay [2], the % of control after 240 min (intact peptide by RP-HPLC after incubation with NEP) was 98%.

B15: C11(E6) [BC11] (peptide)
peptide: B9 peptide with K16Q, K21Q
B15: in assay [1], the % Efficacy came to 95%; the EC50 (nM), NPR-B whole cell cGMP assay came out at 888 nM; the EC50 Ratio versus CNP22 turned out to be 60.4; the Rescue Ratio Average came to 120. Also, the % of control after 240 min (intact peptide by RP-HPLC after incubation with NEP) in assay [2] was 102%.

B16: C8(E6) [BC8] (peptide)
peptide: B9 peptide with K16Q
For B16, in assay [1], the % Efficacy turned out to be 97%; the EC50 (nM), NPR-B whole cell cGMP assay was 719 nM; the EC50 Ratio versus CNP22 turned out to be 48.9; the Rescue Ratio Average was determined as 52. The same molecule showed a % of control after 240 min (intact peptide by RP-HPLC after incubation with NEP) in assay [2] of 103%.

B17: CNP-14AAlinker-D6 [C4] (peptide)
peptide: GLSKGCFGLKLDRIGSMSGLGCGGGGSGGGGSGGGGDDDDDD
B17: in assay [1], the % Efficacy stood at 156%; the EC50 (nM), NPR-B whole cell cGMP assay is 2140 nM; the EC50 Ratio versus CNP22 turned out to be 146; the Rescue Ratio Average amounted to 545. This molecule displayed a % of control after 240 min (intact peptide by RP-HPLC after incubation with NEP) in assay [2] of 75%.

B18: D6-14AAlinker-CNP [C3] (peptide)
peptide: DDDDDDGGGGSGGGGSGGGGGLSKGCFGLKLDRIGSMSGLGC
The molecule B18 had a % of control after 240 min (intact peptide by RP-HPLC after incubation with NEP) in assay [2] of 101%.

B19: atrial natriuretic peptide (ANP) (peptide)
peptide: SLRRSSCFGGRMDRIGAQSGLGCNSFRY
B19: in assay [3], the EC50 on NPR-A (nM), whole cell cGMP assay is 1.4 nM.

B20: C1(E6) [BC1] (peptide)
peptide: EEEEEESGGGGSGGGGSGGGGGLSKGCFGLKLDRIGSMSGLGC
For B20, in assay [1], the % Efficacy is 97%; the EC50 (nM), NPR-B whole cell cGMP assay turned out to be 1740 nM; the EC50 Ratio versus CNP22 was determined as 118; the Rescue Ratio Average stood at 122. The % of control after 240 min (intact peptide by RP-HPLC after incubation with NEP) in assay [2] was 99%.
